{"source": "patent US20160304570A1", "test_in_all_cases": "cell-based or functional assay", "key": {"[1]": {"target": "human voltage-gated sodium channel Nav1.3 (human) (UniProt Q9NY46)", "sequence (Q9NY46 whole entry)": "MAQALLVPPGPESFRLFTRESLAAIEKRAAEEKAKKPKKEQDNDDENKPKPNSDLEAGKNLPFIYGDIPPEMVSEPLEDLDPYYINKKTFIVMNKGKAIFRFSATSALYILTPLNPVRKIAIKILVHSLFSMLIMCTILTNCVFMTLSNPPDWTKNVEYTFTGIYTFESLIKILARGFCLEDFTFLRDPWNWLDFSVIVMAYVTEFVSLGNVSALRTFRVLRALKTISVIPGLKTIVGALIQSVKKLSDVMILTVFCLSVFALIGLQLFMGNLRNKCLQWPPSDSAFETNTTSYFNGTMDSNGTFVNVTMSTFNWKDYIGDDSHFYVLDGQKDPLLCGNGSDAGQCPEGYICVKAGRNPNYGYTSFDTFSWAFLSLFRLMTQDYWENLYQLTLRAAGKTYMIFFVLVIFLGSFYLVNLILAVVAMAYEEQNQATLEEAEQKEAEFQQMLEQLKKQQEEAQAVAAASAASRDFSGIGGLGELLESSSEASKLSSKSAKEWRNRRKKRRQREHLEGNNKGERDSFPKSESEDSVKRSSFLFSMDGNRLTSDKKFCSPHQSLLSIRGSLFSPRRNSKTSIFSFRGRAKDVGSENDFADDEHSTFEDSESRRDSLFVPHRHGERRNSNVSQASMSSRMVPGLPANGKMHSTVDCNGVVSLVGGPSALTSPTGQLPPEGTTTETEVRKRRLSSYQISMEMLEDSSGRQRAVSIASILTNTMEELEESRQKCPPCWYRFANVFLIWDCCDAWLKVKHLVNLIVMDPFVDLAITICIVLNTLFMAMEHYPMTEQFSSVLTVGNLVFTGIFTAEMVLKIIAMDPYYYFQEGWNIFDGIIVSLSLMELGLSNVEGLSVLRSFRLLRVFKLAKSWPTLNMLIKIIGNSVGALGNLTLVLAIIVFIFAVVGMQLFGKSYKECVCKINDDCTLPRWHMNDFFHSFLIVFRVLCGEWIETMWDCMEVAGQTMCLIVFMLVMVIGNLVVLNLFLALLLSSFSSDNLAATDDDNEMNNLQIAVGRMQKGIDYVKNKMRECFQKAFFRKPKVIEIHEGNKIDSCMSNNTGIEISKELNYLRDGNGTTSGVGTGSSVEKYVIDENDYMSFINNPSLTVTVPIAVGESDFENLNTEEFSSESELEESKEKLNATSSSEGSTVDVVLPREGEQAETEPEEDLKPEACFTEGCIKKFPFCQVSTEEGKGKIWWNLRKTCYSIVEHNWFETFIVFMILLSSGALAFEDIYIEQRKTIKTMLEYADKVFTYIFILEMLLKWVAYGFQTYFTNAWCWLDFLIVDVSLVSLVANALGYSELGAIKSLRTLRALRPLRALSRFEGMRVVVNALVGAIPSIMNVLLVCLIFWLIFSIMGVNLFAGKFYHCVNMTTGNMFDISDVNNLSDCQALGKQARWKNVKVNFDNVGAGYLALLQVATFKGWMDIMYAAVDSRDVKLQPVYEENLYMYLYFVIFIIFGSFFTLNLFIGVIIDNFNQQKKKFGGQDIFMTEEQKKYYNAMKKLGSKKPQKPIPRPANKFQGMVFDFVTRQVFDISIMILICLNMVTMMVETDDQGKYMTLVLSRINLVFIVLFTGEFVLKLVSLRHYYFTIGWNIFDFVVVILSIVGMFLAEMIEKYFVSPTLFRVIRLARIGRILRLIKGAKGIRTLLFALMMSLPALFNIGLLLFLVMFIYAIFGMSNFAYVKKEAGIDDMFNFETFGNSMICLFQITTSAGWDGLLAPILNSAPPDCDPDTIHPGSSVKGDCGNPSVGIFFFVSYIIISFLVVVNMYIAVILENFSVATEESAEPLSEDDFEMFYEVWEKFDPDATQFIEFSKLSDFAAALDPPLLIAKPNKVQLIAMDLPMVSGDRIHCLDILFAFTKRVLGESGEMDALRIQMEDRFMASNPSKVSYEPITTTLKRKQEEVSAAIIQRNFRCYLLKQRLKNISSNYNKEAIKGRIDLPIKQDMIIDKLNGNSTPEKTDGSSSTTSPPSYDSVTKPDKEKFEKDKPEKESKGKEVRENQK"}, "[2]": {"target": "human Nav1.7 voltage-gated sodium channel (human) (UniProt Q15858)", "sequence (Q15858 whole entry)": "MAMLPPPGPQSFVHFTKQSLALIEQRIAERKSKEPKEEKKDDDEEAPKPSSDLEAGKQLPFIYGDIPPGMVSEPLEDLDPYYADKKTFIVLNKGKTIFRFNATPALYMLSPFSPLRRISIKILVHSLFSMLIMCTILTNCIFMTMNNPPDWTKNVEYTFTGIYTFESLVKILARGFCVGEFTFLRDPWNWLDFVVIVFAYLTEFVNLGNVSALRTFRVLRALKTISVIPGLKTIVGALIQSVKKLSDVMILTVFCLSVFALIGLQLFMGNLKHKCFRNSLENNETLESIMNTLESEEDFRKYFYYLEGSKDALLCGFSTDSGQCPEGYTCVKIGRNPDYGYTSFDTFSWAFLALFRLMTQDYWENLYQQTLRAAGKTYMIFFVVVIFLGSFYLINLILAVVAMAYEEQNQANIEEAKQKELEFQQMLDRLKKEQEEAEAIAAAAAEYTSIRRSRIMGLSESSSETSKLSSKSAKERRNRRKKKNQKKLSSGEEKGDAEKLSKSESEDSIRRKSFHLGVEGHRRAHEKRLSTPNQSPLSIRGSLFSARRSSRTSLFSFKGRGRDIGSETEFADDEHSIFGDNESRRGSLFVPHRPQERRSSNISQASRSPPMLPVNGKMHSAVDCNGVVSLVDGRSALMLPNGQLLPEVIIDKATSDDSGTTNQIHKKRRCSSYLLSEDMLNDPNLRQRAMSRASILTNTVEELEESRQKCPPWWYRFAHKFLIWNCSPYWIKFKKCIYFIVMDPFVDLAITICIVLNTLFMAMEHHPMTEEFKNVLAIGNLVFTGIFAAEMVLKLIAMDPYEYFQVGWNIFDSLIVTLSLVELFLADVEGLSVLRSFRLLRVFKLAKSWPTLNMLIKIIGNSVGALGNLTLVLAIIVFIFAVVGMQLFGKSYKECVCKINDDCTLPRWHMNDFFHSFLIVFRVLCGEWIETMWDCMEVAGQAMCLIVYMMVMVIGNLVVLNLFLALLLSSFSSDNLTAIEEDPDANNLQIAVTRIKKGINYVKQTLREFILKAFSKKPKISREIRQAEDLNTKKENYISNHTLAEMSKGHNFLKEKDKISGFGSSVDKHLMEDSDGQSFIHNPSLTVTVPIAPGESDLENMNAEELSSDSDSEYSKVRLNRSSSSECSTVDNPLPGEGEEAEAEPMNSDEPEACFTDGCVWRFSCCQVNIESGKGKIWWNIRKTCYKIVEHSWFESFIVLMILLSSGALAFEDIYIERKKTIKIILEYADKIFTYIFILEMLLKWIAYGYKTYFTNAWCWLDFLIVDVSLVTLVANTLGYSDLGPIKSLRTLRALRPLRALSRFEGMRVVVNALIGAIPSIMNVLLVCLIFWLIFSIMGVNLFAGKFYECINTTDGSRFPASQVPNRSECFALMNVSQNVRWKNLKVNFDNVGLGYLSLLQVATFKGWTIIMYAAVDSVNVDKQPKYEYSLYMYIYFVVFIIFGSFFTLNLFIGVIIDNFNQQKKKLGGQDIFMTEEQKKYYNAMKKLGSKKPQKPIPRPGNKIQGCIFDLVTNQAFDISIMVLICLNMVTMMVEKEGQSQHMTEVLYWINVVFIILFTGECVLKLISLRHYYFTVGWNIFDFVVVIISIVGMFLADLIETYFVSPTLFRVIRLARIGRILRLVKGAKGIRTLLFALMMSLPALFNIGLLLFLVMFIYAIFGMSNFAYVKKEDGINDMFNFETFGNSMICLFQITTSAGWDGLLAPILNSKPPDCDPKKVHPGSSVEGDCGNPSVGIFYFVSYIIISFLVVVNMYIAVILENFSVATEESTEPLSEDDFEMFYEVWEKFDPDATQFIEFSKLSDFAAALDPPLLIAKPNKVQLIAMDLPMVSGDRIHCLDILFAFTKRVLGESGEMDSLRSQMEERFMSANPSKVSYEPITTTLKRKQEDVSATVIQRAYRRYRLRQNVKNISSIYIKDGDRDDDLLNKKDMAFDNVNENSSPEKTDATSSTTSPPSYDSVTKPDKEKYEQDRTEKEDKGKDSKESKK"}, "[3]": {"target": "human Nav1.4 voltage-gated sodium channel (human) (UniProt P35499)"}, "[4]": {"target": "human Nav1.5 voltage-gated sodium channel (human) (UniProt Q14524)"}, "[5]": {"target": "human Nav1.3 voltage-gated sodium channel (human) (UniProt Q9NY46)", "sequence (Q9NY46 whole entry)": "as the sequence (Q9NY46 whole entry) above"}, "[6]": {"target": "human voltage-gated sodium channel Nav1.7 (human) (UniProt Q15858)", "sequence (Q15858 whole entry)": "as the sequence (Q15858 whole entry) above"}, "[7]": {"target": "human voltage-gated sodium channel Nav1.5 (human) (UniProt Q14524)"}, "[8]": {"target": "human voltage-gated sodium channel Nav1.4 (human) (UniProt P35499)"}}, "note": "Non-standard residues stand in square brackets, D forms with d. Groups on a side chain read outwards from the residue. Primed or numbered codes have the meaning given here. No end group written: not given here. *: point of attachment. X2 = ((2-hydroxyethyl)thio)acetamide, O=C(CSCCO)*; PEG11′ = not defined here; 4‑Pen = not defined here; Pra = C#CC[C@H](N)C(=O)O; Nva = CCC[C@H](N)C(=O)O; Abu = CC[C@H](N)C(=O)O; Atz = not defined here"}
{"molecule": "[Ala5;Phe6;Ile13;Arg28]GpTx-1(1-34)-FreeAcid (peptide)", "values": [{"measurement": "IWQ Use Nav1.3 IC50", "setting": "[1]", "result": 3, "unit": "µM"}]}
{"molecule": "[Ala5;Phe6;K(Ac-Pra)13;Arg28]GpTx-1(1-34) (peptide)", "values": [{"measurement": "IWQ Use Nav1.7 IC50 (IonWorks Quattro electrophysiology)", "setting": "[2]", "result": 0.78, "unit": "µM"}, {"measurement": "IWQ Use Nav1.4 IC50 (IonWorks Quattro electrophysiology)", "setting": "[3]", "result": 18, "unit": "µM"}, {"measurement": "IWQ Use Nav1.5 IC50 (IonWorks Quattro electrophysiology)", "setting": "[4]", "result": 24.6, "unit": "µM"}, {"measurement": "IWQ Use Nav1.3 IC50 (IonWorks Quattro electrophysiology)", "setting": "[5]", "result": 0.25, "unit": "µM"}]}
{"molecule": "[Ala5;Phe6;Leu13;Arg28]GpTx-1(1-34)-FreeAcid (peptide)", "values": [{"measurement": "IWQ Use Nav1.7 IC50", "setting": "[6]", "result": 4.5, "unit": "µM"}, {"measurement": "IWQ Use Nav1.3 IC50", "setting": "[1]", "result": 4.5, "unit": "µM"}]}
{"molecule": "[Ala5;Phe6;Lys13;Arg28]GpTx-1(1-34)-FreeAcid (peptide)", "values": [{"measurement": "IWQ Use Nav1.7 IC50", "setting": "[6]", "result": 3.6, "unit": "µM"}, {"measurement": "IWQ Use Nav1.5 IC50", "setting": "[7]", "result": 2.8, "unit": "µM"}, {"measurement": "IWQ Use Nav1.3 IC50", "setting": "[1]", "result": 0.3, "unit": "µM"}]}
{"molecule": "[Ala5;Phe6;Met13;Arg28]GpTx-1(1-34)-FreeAcid (peptide)", "values": [{"measurement": "IWQ Use Nav1.7 IC50", "setting": "[6]", "result": 4.7, "unit": "µM"}, {"measurement": "IWQ Use Nav1.3 IC50", "setting": "[1]", "result": 0.8, "unit": "µM"}]}
{"molecule": "[Ala5;Phe6;Pra12;Leu26;Arg28]GpTx-1(1-34) (peptide)", "values": [{"measurement": "IWQ Use Nav1.7 IC50 (IonWorks Quattro electrophysiology)", "setting": "[2]", "result": 0.13, "unit": "µM"}, {"measurement": "IWQ Use Nav1.5 IC50 (IonWorks Quattro electrophysiology)", "setting": "[4]", "result": 36.5, "unit": "µM"}, {"measurement": "IWQ Use Nav1.3 IC50 (IonWorks Quattro electrophysiology)", "setting": "[5]", "result": 0.12, "unit": "µM"}]}
{"molecule": "[Ala5;Phe6;Pro13;Arg28]GpTx-1(1-34)-FreeAcid (peptide)", "values": [{"measurement": "IWQ Use Nav1.7 IC50", "setting": "[6]", "result": 2.9, "unit": "µM"}, {"measurement": "IWQ Use Nav1.3 IC50", "setting": "[1]", "result": 2.9, "unit": "µM"}]}
{"molecule": "[Ala5;Phe6;Ser13;Arg28]GpTx-1(1-34)-FreeAcid (peptide)", "values": [{"measurement": "IWQ Use Nav1.3 IC50", "setting": "[1]", "result": 1.1, "unit": "µM"}]}
{"molecule": "[Ala5;Phe6;Thr13;Arg28]GpTx-1(1-34)-FreeAcid (peptide)", "values": [{"measurement": "IWQ Use Nav1.3 IC50", "setting": "[1]", "result": 1.3, "unit": "µM"}]}
{"molecule": "[Ala5;Phe6;Val13;Arg28]GpTx-1(1-34)-FreeAcid (peptide)", "values": [{"measurement": "IWQ Use Nav1.3 IC50", "setting": "[1]", "result": 1.7, "unit": "µM"}]}
{"molecule": "[Nva5;Leu6;K(4-Pen)13;Arg28]GpTx-1(1-34) (peptide)", "values": [{"measurement": "IWQ Use Nav1.7 IC50 (IonWorks Quattro electrophysiology)", "setting": "[2]", "result": 0.31, "unit": "µM"}, {"measurement": "IWQ Use Nav1.5 IC50 (IonWorks Quattro electrophysiology)", "setting": "[4]", "result": 37.5, "unit": "µM"}, {"measurement": "IWQ Use Nav1.3 IC50 (IonWorks Quattro electrophysiology)", "setting": "[5]", "result": 0.27, "unit": "µM"}]}
{"molecule": "D[Abu]LGALRKCIPDNDKC[Abu]RPNLVCSRTHEWCKYVF (ends and bridges not checked)", "note": "[[2-Abu2,17;Ala5;Leu6;Glu28]GpTx-1(1-34)]", "values": [{"measurement": "IWQ Use Nav1.4 (µM) (IC50, IonWorks Quattro population patch clamp)", "setting": "[8]", "result": "> 50", "unit": "µM"}, {"measurement": "IWQ Use Nav1.7 (µM) (IC50, IonWorks Quattro population patch clamp)", "setting": "[6]", "result": 4.3, "unit": "µM"}, {"measurement": "IWQ Use Nav1.5 (µM) (IC50, IonWorks Quattro population patch clamp)", "setting": "[7]", "result": "> 50", "unit": "µM"}, {"measurement": "IWQ Use Nav1.3 (µM) (IC50, IonWorks Quattro population patch clamp)", "setting": "[1]", "result": "> 5", "unit": "µM"}]}
{"molecule": "D[Abu]LGVLRKCIPDNDKC[Abu]RPNLVCSRTHEWCKYVF (ends and bridges not checked)", "note": "[[2-Abu2,17;Val5;Leu6;Glu28]GpTx-1(1-34)]", "values": [{"measurement": "IWQ Use Nav1.4 (µM) (IC50, IonWorks Quattro population patch clamp)", "setting": "[8]", "result": "> 50", "unit": "µM"}, {"measurement": "IWQ Use Nav1.7 (µM) (IC50, IonWorks Quattro population patch clamp)", "setting": "[6]", "result": "> 5", "unit": "µM"}, {"measurement": "IWQ Use Nav1.5 (µM) (IC50, IonWorks Quattro population patch clamp)", "setting": "[7]", "result": 33, "unit": "µM"}, {"measurement": "IWQ Use Nav1.3 (µM) (IC50, IonWorks Quattro population patch clamp)", "setting": "[1]", "result": "> 5", "unit": "µM"}]}
{"molecule": "DCLGALRKCEPD[Atz]([PEG11′-X2])DKCCRPNLVCSRLHRWCKYVF (ends and bridges not checked; also: printed as [Ala5;Leu6,26;Glu10;Atz(PEG11-((2-hydroxyethyl)thio)acetamide)13;Arg28]GpTx-1(1-34))", "note": "[[Ala5;Leu6,26;Glu10;Atz(PEG11-((2-hydroxyethyl)thio)acetamide)13;Arg28]GpTx-1(1-34)]", "values": [{"measurement": "Nav1.4 Use IC50 (PatchXpress electrophysiology, inhibition of sodium current)", "setting": "[8]", "result": "> 10", "unit": "µM"}, {"measurement": "Nav1.7 Use IC50 (PatchXpress electrophysiology, inhibition of sodium current)", "setting": "[6]", "result": 0.054, "unit": "µM"}, {"measurement": "Nav1.5 Use IC50 (PatchXpress electrophysiology, inhibition of sodium current)", "setting": "[7]", "result": "> 10", "unit": "µM"}]}
{"molecule": "D[Abu]LG[Nva]LRKCIPDNDKC[Abu]RPNLVCSRTHEWCKYVF (ends and bridges not checked)", "note": "[[2-Abu2,17;Nva5;Leu6;Glu28]GpTx-1(1-34)]", "values": [{"measurement": "IWQ Use Nav1.4 (µM) (IC50, IonWorks Quattro population patch clamp)", "setting": "[8]", "result": "> 50", "unit": "µM"}, {"measurement": "IWQ Use Nav1.7 (µM) (IC50, IonWorks Quattro population patch clamp)", "setting": "[6]", "result": "> 5", "unit": "µM"}, {"measurement": "IWQ Use Nav1.5 (µM) (IC50, IonWorks Quattro population patch clamp)", "setting": "[7]", "result": "> 50", "unit": "µM"}, {"measurement": "IWQ Use Nav1.3 (µM) (IC50, IonWorks Quattro population patch clamp)", "setting": "[1]", "result": "> 5", "unit": "µM"}]}
{"molecule": "DCLG[Abu]LRKCIPDK(4‑Pen)DKCCRPNLVCSRTHEWCKYVF (ends and bridges not checked)", "note": "[[2-Abu5;Leu6;K(4-Pen)13;Glu28]GpTx-1(1-34)]", "values": [{"measurement": "IWQ Use Nav1.7 IC50 (IonWorks Quattro electrophysiology)", "setting": "[2]", "result": 1.8, "unit": "µM"}, {"measurement": "IWQ Use Nav1.4 IC50 (IonWorks Quattro electrophysiology)", "setting": "[3]", "result": "> 5", "unit": "µM"}, {"measurement": "IWQ Use Nav1.5 IC50 (IonWorks Quattro electrophysiology)", "setting": "[4]", "result": "> 5", "unit": "µM"}, {"measurement": "IWQ Use Nav1.3 IC50 (IonWorks Quattro electrophysiology)", "setting": "[5]", "result": 4.1, "unit": "µM"}]}
{"molecule": "D[Abu]LG[Abu]LRKCIPDNDKC[Abu]RPNLVCSRTHEWCKYVF (ends and bridges not checked)", "note": "[[2-Abu2,5,17;Leu6;Glu28]GpTx-1(1-34)]", "values": [{"measurement": "IWQ Use Nav1.4 (µM) (IC50, IonWorks Quattro population patch clamp)", "setting": "[8]", "result": "> 50", "unit": "µM"}, {"measurement": "IWQ Use Nav1.7 (µM) (IC50, IonWorks Quattro population patch clamp)", "setting": "[6]", "result": 4.3, "unit": "µM"}, {"measurement": "IWQ Use Nav1.5 (µM) (IC50, IonWorks Quattro population patch clamp)", "setting": "[7]", "result": "> 50", "unit": "µM"}, {"measurement": "IWQ Use Nav1.3 (µM) (IC50, IonWorks Quattro population patch clamp)", "setting": "[1]", "result": "> 5", "unit": "µM"}]}
{"molecule": "DCLGALRKCIPDHDKCCRPNLVCSRTHRWCKYVF-OH (ends and bridges not checked)", "note": "[[Ala5;Leu6;His13;Arg28]GpTx-1(1-34)-FreeAcid]", "values": [{"measurement": "IWQ Use Nav1.4", "setting": "[8]", "result": "> 5", "unit": "µM"}, {"measurement": "IWQ Use Nav1.7", "setting": "[6]", "result": "> 5", "unit": "µM"}, {"measurement": "IWQ Use Nav1.5", "setting": "[7]", "result": "> 5", "unit": "µM"}, {"measurement": "IWQ Use Nav1.3", "setting": "[1]", "result": 3.9, "unit": "µM"}]}
{"molecule": "DCLGALRKCEPD[Pra]DKCCRPNLVCSRLHRWCKYVF (ends and bridges not checked)", "note": "[[Ala5;Leu6,26;Glu10;Pra13;Arg28]GpTx-1(1-34)]", "values": [{"measurement": "IWQ Use Nav1.7 IC50 (IonWorks Quattro electrophysiology)", "setting": "[2]", "result": 0.7, "unit": "µM"}, {"measurement": "IWQ Use Nav1.4 IC50 (IonWorks Quattro electrophysiology)", "setting": "[3]", "result": "> 50", "unit": "µM"}, {"measurement": "Nav1.4 Use IC50 (µM), electrophysiology by PatchXpress", "setting": "[8]", "result": "> 10", "unit": "µM"}, {"measurement": "IWQ Use Nav1.5 IC50 (IonWorks Quattro electrophysiology)", "setting": "[4]", "result": "> 50", "unit": "µM"}, {"measurement": "Nav1.7 Use IC50 (µM), electrophysiology by PatchXpress", "setting": "[6]", "result": 0.013, "unit": "µM"}, {"measurement": "Nav1.5 Use IC50 (µM), electrophysiology by PatchXpress", "setting": "[7]", "result": "> 10", "unit": "µM"}, {"measurement": "IWQ Use Nav1.3 IC50 (IonWorks Quattro electrophysiology)", "setting": "[5]", "result": 1.4, "unit": "µM"}]}
